Measurements: patent publication US5576294A, “Human Kunitz-type protease inhibitor variant” (Novo Nordisk A/S, priority 1992, dated 1996)
Where two headings read alike, the source gives them in different places.

How the values were obtained:
[1] = target: T1, Porcine trypsin (Sus scrofa, UniProt P00761); experiment: Inhibition of serine proteinases: trypsin, peptidyl nitroanilide substrate, residual activity at 405 nm; assay type: biochemical; settings: enzyme 10 nM, read-out: Apparent Ki (nM), Trypsin
T1 construct: purchased Novo Nordisk (Bagsvaerd, Denmark; the applicant itself)
T1 sequence (P00761 9-231): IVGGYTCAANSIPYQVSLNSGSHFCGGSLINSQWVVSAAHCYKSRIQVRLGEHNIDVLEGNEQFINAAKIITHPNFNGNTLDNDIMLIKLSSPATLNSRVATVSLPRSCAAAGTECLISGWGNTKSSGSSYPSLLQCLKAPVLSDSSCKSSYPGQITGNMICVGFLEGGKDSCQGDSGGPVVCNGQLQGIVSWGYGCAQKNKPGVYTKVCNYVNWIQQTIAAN
Procedure: (§1) KFN 1593 was purified from yeast culture medium as described in example 1. The concentration of KFN 1593 was determined using 1% E280 nm =8.3 and Mw =6500. Porcine trypsin was from Novo Nordisk (Bagsv.ae butted.rd, Denmark), bovine chymotrypsin (TLCK treated) and porcine pancreatic kallikrein was from Sigma Chemical Co (St. Louis, Mo., U.S.A.), human plasmin and human plasma kallikrein was from Kabi (Stockholm, Sweden).
(§2) Human neutrophil elastase and cathepsin G was purified from extracts of PMNs according to the method described by Baugh and Travis (Biochemistry 15 (1976) 836-843). Peptidyl nitroanilide substrates, S2251, S2586, S2266, S2302 were from Kabi (Stockholm, Sweden). M4765 and S7388 was from Sigma Chemical Co (St. Louis, Mo., U.S.A.) and FXa-1 was from NycoMed (Oslo, Norway).
(§3) Serine proteinases were incubated with various concentrations of KFN 1593 for 30 min. Substrate was then added and residual proteinase activity was measured at 405 nm.
(§4) The three TFPI (domain II) variants were purified from yeast culture medium. Their concentrations were determined from the absorbance at 214 nm using BPTI as a standard. The final concentration was determined by titration with trypsin. Porcine trypsin and human recombinant proteins, factor VIIa, activated protein C (ACP), and tPA were obtained from Novo Nordisk A/S (Bagsvaerd, Denmark), so was human thrombin. Bovine chymotrypsin and glandular kallikrein were obtained from Sigma Chemical Co. (St. Louis, Mo., U.S.A.). Truncated human recombinant tissue factor was obtained from Corvas (San Diego, Calif., U.S.A.). Human neutrophil cathepsin G was purified from extracts of PMNs according to the method described by Baugh and Travis (Biochemistry 15 (1976) 836-843). Human plasmin was from Kabi (Stockholm, Sweden), uPA was from Serono (Milan, Italy), human factor Xa was a gift from Dr. W. Kisiel (Albuquerque, N.M., U.S.A.), and human plasma kallikrein was a gift from Dr. I Schousboe (Copenhagen, Denmark).
(§5) Peptidyl nitroanilide substrates, S2251, S2302, S2266, S2586, S2288, S2444, S2366, and S2238 were from Kabi (Stockholm, Sweden). S7388 and M4765 were from Sigma Chemical Co. (St. Louis, Mo., U.S.A.) and FXa-1 was from Nycomed (Oslo, Norway).
(§6) Serine proteinases were incubated with various concentrations of Kunitz Domain variant for 30 min. Substrate (0.6 mM) was then added and residual proteinase activity was measured at 405 nm.
(§7) The four variants were purified from yeast culture medium. Their concentrations were determined from the absorbance at 214 nm using BTPI as a standard. Porcine trypsin was obtained from Novo Nordisk A/S (Bagsvaerd, Denmark, bovine chymotrypsin (TLCK treated) was obtained from Sigma Chemical Co. (St. Louis, Mo., U.S.A.). Truncated human recombinant tissue factor was obtained from Corvas (San Diego, Calif., U.S.A.). Human plasmin was from Kabi (Stockholm, Sweden). Human neutrophil cathepsin G and elastase were purified from extracts of PMNs according to the method described by Baugh and Travis (Biochemistry 15 (1976) 836-843).
(§8) Peptidyl nitroanilide substrates, S2251, S2586 were from Kabi (Stockholm, Sweden). S7388 and M4765 were from Sigma Chemical Co. (St. Louis, Mo., U.S.A.).
(§9) Serine proteinases were incubated with various concentrations of the variants for 30 min. Substrate ([…]) was then added and residual proteinase activity was measured at 405 nm.

[2] = target: T2, Human neutrophil elastase (Homo sapiens, UniProt P08246); experiment: Inhibition of serine proteinases: neutrophil elastase; assay type: biochemical; settings: Example 9; for Ki: enzyme 4 nM, substrate M4765, 30 min incubation, read-out: Apparent Ki (nM), N. elastase
T2 construct: Human neutrophil elastase and cathepsin G was purified from extracts of PMNs; from tissue; host or cells: extracts of human polymorphonuclear leukocytes (PMNs), method of Baugh and Travis
T2 sequence (P08246 30-267): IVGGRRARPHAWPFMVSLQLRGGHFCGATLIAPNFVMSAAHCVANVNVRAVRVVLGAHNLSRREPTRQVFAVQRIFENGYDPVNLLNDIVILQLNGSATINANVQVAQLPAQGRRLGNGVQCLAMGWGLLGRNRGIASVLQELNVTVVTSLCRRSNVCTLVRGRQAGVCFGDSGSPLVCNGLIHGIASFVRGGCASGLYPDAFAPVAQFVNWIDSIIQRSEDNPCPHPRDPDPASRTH
Procedure: as §1, §2
Serine proteinases were incubated with various concentrations of KFN 1593 for 30 min. Substrate was then added and residual proteinase activity was measured at 405 nm. […]
as §7, §8, §9

[3] = target: T3, Human neutrophil cathepsin G (Homo sapiens, UniProt P08311); experiment: Inhibition of serine proteinases: neutrophil cathepsin G; assay type: biochemical; settings: Example 9; enzyme 50 nM, substrate S7388, 30 min incubation; read-out: Apparent Ki (nM), N. cathepsin G
T3 construct: Human neutrophil cathepsin G was purified from extracts of PMNs; from tissue; host or cells: extracts of human polymorphonuclear leukocytes (PMNs), method of Baugh and Travis
T3 sequence (P08311 21-255): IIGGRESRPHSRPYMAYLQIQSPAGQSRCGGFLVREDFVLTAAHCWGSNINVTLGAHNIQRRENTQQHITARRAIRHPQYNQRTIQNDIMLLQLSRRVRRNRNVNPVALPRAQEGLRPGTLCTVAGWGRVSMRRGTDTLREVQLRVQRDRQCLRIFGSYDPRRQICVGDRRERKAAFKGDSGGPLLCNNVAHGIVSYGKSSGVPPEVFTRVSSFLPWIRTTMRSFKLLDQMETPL
Procedure: as §1, §2, §3, §4, §5, §6, §7, §8, §9

[4] = target: T4, Bovine chymotrypsin (Bos taurus, UniProt P00766); experiment: Inhibition of serine proteinases: chymotrypsin; assay type: biochemical; settings: enzyme 2.5 nM, substrate S2586 0.6 mM, 30 min incubation
T4 construct: purchased Sigma Chemical Co. (St. Louis, Mo., U.S.A.)
Procedure: as §4, §5, §6, §7, §8, §9

[5] = target: T5, Human plasmin (Homo sapiens, UniProt P00747); experiment: Inhibition of serine proteinases: plasmin; assay type: biochemical; set-up: human plasmin and human plasma kallikrein was from Kabi (Stockholm, Sweden); purchased Kabi (Stockholm, Sweden); settings: enzyme 4 nM, 30 min incubation, read-out: Apparent Ki (nM), Plasmin
Procedure: as §1, §2, §3, §4, §5, §6, §7, §8, §9
Target sequence in this assay (P00747 581-810 limits assumed): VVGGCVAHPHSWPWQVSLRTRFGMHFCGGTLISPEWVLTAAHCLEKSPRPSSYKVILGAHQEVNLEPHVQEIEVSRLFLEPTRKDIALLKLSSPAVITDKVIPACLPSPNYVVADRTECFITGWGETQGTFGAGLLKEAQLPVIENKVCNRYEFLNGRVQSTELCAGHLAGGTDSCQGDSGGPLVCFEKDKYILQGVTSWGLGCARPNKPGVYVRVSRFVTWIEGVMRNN
Target sequence in this assay (P00747 97-580 limits assumed): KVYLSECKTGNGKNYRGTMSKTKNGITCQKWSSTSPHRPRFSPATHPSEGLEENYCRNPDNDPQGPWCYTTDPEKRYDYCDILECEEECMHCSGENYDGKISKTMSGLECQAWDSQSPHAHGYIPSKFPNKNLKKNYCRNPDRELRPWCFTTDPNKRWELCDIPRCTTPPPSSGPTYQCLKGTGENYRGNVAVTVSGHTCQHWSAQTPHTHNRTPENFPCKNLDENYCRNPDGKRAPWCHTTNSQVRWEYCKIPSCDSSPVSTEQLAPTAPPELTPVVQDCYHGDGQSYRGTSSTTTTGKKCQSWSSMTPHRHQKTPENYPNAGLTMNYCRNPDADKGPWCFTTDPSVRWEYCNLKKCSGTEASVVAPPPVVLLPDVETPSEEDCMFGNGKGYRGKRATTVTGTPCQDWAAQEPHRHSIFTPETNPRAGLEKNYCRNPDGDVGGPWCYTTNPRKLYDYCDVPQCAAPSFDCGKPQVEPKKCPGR

[6] = target: T5, Human plasmin
[7] = target: Porcine trypsin (porcine) (UniProt P00761)
[8] = target: bovine chymotrypsin (TLCK treated) (bovine) (UniProt P00766)
[9] = target: glandular kallikrein (as used in Example 8) (Sus scrofa (Pig)) (UniProt P00752)
[10] = target: T6, plasma kallikrein (Homo sapiens, UniProt P03952)
[11] = target: T5, Human plasmin; experiment: apparent Ki; 4 nM plasmin, substrate S2251, 30 min preincubation, residual activity at 405 nm
[12] = target: Porcine trypsin (porcine) (UniProt P00761); experiment: apparent Ki; 10 nM trypsin, substrate S2251, 30 min preincubation, residual activity at 405 nm
[13] = target: bovine chymotrypsin (TLCK treated) (bovine) (UniProt P00766); experiment: apparent Ki; 2.5 nM chymotrypsin, substrate S2586, 30 min preincubation, residual activity at 405 nm
[14] = target: T6, plasma kallikrein; experiment: apparent Ki; 3 nM plasma kallikrein, substrate S2302, 30 min preincubation, residual activity at 405 nm
[15] = target: glandular kallikrein (as used in Example 8) (Sus scrofa (Pig)) (UniProt P00752); experiment: apparent Ki; 1 U/ml glandular kallikrein, substrate S2266, 30 min preincubation, residual activity at 405 nm
[16] = target: Human neutrophil elastase (human) (UniProt P08246)
[17] = target: Human neutrophil elastase (human) (UniProt P08246); experiment: apparent Ki; 4 nM neutrophil elastase, substrate M4765, 30 min preincubation, residual activity at 405 nm
[18] = target: T6, plasma kallikrein; experiment: Inhibition of serine proteinases: plasma kallikrein; assay type: biochemical; settings: Example 8; enzyme 3 nM, substrate S2302 0.6 mM, 30 min incubation; read-out: Apparent Ki (nM), Pl. kallikrein
Procedure: as §1, §2, §3, §4, §5, §6
Target sequence in this assay (P03952 391-638 limits assumed): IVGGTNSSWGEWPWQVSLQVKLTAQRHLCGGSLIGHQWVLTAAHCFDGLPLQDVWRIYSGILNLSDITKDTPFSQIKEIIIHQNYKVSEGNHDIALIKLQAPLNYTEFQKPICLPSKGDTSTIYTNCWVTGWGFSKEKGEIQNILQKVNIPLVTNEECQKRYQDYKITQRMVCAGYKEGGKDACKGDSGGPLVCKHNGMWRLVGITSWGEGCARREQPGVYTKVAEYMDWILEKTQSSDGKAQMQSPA
Target sequence in this assay (P03952 20-390 limits assumed): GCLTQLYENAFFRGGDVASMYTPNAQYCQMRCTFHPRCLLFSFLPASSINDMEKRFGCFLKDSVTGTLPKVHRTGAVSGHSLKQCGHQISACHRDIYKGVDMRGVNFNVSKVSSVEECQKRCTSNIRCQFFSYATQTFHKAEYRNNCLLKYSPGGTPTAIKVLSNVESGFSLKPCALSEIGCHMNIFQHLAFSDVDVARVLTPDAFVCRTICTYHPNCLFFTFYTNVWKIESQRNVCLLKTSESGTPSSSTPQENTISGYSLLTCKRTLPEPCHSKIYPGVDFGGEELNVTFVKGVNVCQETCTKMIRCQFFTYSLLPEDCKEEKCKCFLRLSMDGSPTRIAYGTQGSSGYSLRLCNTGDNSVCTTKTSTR

[19] = target: T7, glandular kallikrein (porcine pancreatic kallikrein) (Sus scrofa, UniProt P00752); experiment: Inhibition of serine proteinases: glandular kallikrein; assay type: biochemical; settings: Example 8; enzyme 1 U/ml, substrate S2266 0.6 mM, 30 min incubation; read-out: Apparent Ki (nM), Gl. kallikrein
T7 construct: purchased Sigma Chemical Co (St. Louis, Mo., U.S.A.)
T7 sequence (P00752 8-246): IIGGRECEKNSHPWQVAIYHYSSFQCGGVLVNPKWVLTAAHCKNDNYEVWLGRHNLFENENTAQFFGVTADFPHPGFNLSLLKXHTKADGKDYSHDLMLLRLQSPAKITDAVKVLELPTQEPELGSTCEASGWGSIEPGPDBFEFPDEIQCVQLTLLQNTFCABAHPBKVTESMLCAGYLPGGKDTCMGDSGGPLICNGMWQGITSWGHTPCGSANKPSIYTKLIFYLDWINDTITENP
Procedure: as §1, §2, §3, §4, §5, §6

[20] = target: bovine chymotrypsin (TLCK treated) (bovine) (UniProt P00766); remark: listed apart in the source
[21] = Example 9, substrate S2251, 30 min incubation
[22] = Example 9, read-out: Apparent Ki (nM), Chymotrypsin
[23] = Example 8, substrate S2251 0.6 mM, 30 min incubation
[24] = Example 8, read-out: Apparent Ki (nM), chymotrypsin
[25] = Example 8, substrate S2251 0.6 mM

Q: Which Ki [1, 21] does the source give for [R15V, G16A]-TFPI-2 [KFN 1897] here?
A: Its Ki is over 1000 nM.

Q: And the “neutrophil elastase inhibition (in words)” value [2]?
A: Its value is “strong inhibitors”.

Q: What about the Ki [2] of the same substance?
A: The Ki was 0.46 nM.

Q: What about the Ki [3] of the same substance?
A: The Ki was over 1000 nM.

Q: And the Ki [4, 22]?
A: Its Ki is over 100 nM.

Q: And the Ki ([5]; Example 9)?
A: Its Ki is over 1000 nM.

Q: Which apparent Ki [6] does the source give for “[R15K, G16A, Y17R, T19I, L39R]-TFPI-2 from yeast strain KFN-1867 (from UniProt P10646)” here?
A: Its apparent Ki is 0.003 µM.

Q: What about the apparent Ki [7] of the same substance?
A: Its apparent Ki is under 0.001 µM.

Q: And the apparent Ki [8]?
A: Its apparent Ki is 0.02 µM.

Q: And the apparent Ki [9]?
A: Its apparent Ki is over 0.1 µM.

Q: And the apparent Ki [10]?
A: Its apparent Ki is over 0.1 µM.

Q: And the Ki [11]?
A: Its Ki is 0.003 µM.

Q: What about the Ki [12] of the same substance?
A: The Ki was under 0.001 µM.

Q: What about the Ki [13] of the same substance?
A: Its Ki is 0.02 µM.

Q: What about the Ki [14] of the same substance?
A: Its Ki is over 0.1 µM.

Q: What about the Ki [15] of the same substance?
A: Its Ki is over 0.1 µM.

Q: With “[R15V, G16A]-TFPI-2 from yeast strain KFN-1897 (from UniProt P10646)” as the substance, how does the apparent Ki [16] read?
A: The apparent Ki was 0.00046 µM.

Q: What about the Ki [17] of the same substance?
A: The Ki was 0.00046 µM.

Q: How did the Ki [1, 23] turn out when “[R15K, G16A, Y17R, T19I, L39R]-TFPI-2 [KFN 1867]” was run?
A: The Ki was under 1 nM.

Q: And the Ki [18]?
A: The Ki was over 100 nM.

Q: And the Ki [19]?
A: Its Ki is over 100 nM.

Q: What about the Ki [4, 24] of the same substance?
A: The Ki was 20 nM.

Q: And the Ki [5, 25]?
A: Its Ki is 3 nM.

Q: For “[R15K, G16A, Y17R, T19I, L39R, E46K]-TFPI-2 from yeast strain KFN-1868 (from UniProt P10646)”, which apparent Ki [6] is on record?
A: The apparent Ki was 0.003 µM.

Q: And the apparent Ki [7]?
A: The apparent Ki was under 0.001 µM.

Q: And the apparent Ki [8]?
A: Its apparent Ki is 0.02 µM.

Q: And the apparent Ki [9]?
A: Its apparent Ki is over 0.1 µM.

Q: What about the apparent Ki [10] of the same substance?
A: The apparent Ki was over 0.1 µM.

Q: And the Ki [11]?
A: Its Ki is 0.003 µM.

Q: And the Ki [12]?
A: Its Ki is under 0.001 µM.

Q: And the Ki [13]?
A: Its Ki is 0.02 µM.

Q: What about the Ki [14] of the same substance?
A: The Ki was over 0.1 µM.

Q: And the Ki [15]?
A: Its Ki is over 0.1 µM.

Q: With “[R15K, G16A, Y17R, T19I, L39R, E46K]-TFPI-2 [KFN 1868]” as the substance, how does the Ki [1, 23] read?
A: The Ki was under 1 nM.

Q: And the Ki [18]?
A: Its Ki is over 100 nM.

Q: And the Ki [19]?
A: The Ki was over 100 nM.

Q: And the Ki [4, 24]?
A: The Ki was 20 nM.

Q: And the Ki [5, 25]?
A: Its Ki is 3 nM.

Q: Which results are given for [R15V]-TFPI-2 [KFN 1898]?
A: Ki [1, 21]: > 1000 nM; neutrophil elastase inhibition (in words) [2]: strong inhibitors; Ki [2]: 0.35 nM; Ki [3]: > 1000 nM; Ki [4, 22]: > 100 nM; Ki ([5]; Example 9): > 1000 nM

Q: With “[R15L, G16A]-TFPI-2 from yeast strain KFN-1893 (from UniProt P10646)” as the substance, how does the apparent Ki [16] read?
A: The apparent Ki was 0.00023 µM.

Q: And the apparent Ki [20]?
A: The apparent Ki was under 0.005 µM.

Q: And the Ki [13]?
A: The Ki was under 0.005 µM.

Q: And the Ki [17]?
A: The Ki was 0.00023 µM.
